Molecular target: FMRP (rat, UniProt Q80WE1 1-593)
Assay: EMSA; 150 mM KCl, tRNA; three shifted bands; Filter binding: 10 mM Tris pH 7.5, 50 mM KCl, 1 mM DTT, room temperature; REMSA: 20 mM HEPES pH 7.6, 150 mM KCl, 0.5 mM DTT, 5% glycerol, 50 ng/ul tRNA, room te

B1: human MMP-9 wild-type probe (ssRNA)
RNA: GUUCUGGAGGAAAGGGAGGAGUGGAGGUGGGCUGGGCCCUCUCUUCUCACCUUUGUUUUUUGUUGGAGUGUUUCUAAU
Q: Does B1 bind?
A: binds

From article PMC5538295
